In the nanobody polyreactivity screen of Harvey et al. (2022):

Experiment: yeast display, Sf9 membrane polyspecificity reagent, FACS + sequencing; frameworks hold sequencing errors
Method in brief: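 A nanobody's polyreactivity label depends on the gate it was sorted from. Yeast display cells were stained with 10% biotinylated, detergent-solubilized Sf9 membrane reagent for 1 hour at 4 °C, enriched on streptavidin microbeads and sorted by FACS. The low and high (top ~1%) gates were set on anti-HA fluorescence for expression and streptavidin fluorescence for reagent binding.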

| Sequence | polyreactivity (PSR sort gate) |
| --- | --- |
| QVQLVESGRGLVQAGGSLRLSCAASGSTFGGYAMGWYRQAPGKERELVAAISGSGVRTYYADSVKGRFTISRDNAKNTVYLQMNSLKPEDTAVYYCAKRVRYPGDRYYYWGQGTQVTLSS | high polyreactivity |
| QVQLVESGGGLVQAGGSLRLSCAASVSIFKGYAMGWYRQAPGKERELVAAITGSDGSTYADSVKGRFTISRDNAKNTVYLQMNSLKPEDTAVYYCNTGGWTRYRPPGYEWNWYDYWGQGTQVTVSS | low polyreactivity |
| PVQLVESGGGLVQAGGSLRLSCAASGIIFYRNAMAWYRQAPGKERELVAAITSSGGRTYYAYSVKGRFTISRDNAKNTVYLQMNRLKPEDTAVYYCAATRLYWKIFYGDGDYWGQGTQVTVSS | high polyreactivity |
| QVQLVESGGGLVQAGGSLRLSCAASGLIFGYYAMGWYRQAPGKEREFVAAISGTGGSTYYADSVKGRFTISRDNAKNTVYLQMNSLKPEDTAVYYCAARQGWWRFYAYDYWGQCTQVTVSS | high polyreactivity |
| QVQLVESGGGLVQAGGSLRLSCAASGSIFNYYAMGWYRQAPGKERELVAAIRSTGSTNYADSVKGRFTISRDNAKNTVYLQMNSLKPEDTAVYYCATDVSDWLYFAEHYYWGQGTQVTVSS | low polyreactivity |
| QVQLVESGGGLVQAGGSLRLSCAASGFTFYWYAMGWYRQAPGKERELVATINWRGDTYYADSVKGRFTISRDNAKNTVYLQMNSLKPEDTAVYYCAATKRLAPRPLRLGYGSYNFCGQGTQVTVSS | high polyreactivity |
| QVQLVESGGGLVQAGGSLRLSCAASGFTFYKNTMGWYRQAPAKARELVAAISSSGSSTYYADSVKGRFTISRDYAKNTVYLQMNSLKPEDTAVYYCAAGRFAYHDDYWGQGTQVTVSS | high polyreactivity |
| QVQLVESGGGIVQAGRSLRLSCAASGFTFYWYAMGWYRQAPGKERELVAAISWSGGSTYYADSVKGRFTISRDNETNTVYLQMYSLKPEDTAVYYCAADNYFFGDEDYWGQGTQVTVSS | high polyreactivity |
| QVQLVESGGGLVQAGGSLRLSCAASGSTFSPNAMGWYRQAPGKERELVAAITYRGANTYYADSVKGRFTISRDNEKNTVYLQMNSLKPEDTAVYYCAAEYAYHHVGFGYWGQGTQVTVSS | low polyreactivity |
| QVQLVESGGGLVQAGGSLRLSCAASGSTFPEYAMGWYRQAPGKERELVADISSGGDTSYADSVKGRFTISRDNAKNTVYLQMNSLNPEDTAVYYCAAGTAGTTGSPKFSGYGYDYWGQGTQVTVSS | low polyreactivity |
| QVQLVESGAGLVQAGGSLRLSCAASGSTFRSNAMGWYRPAPGKEREFVASITSRGGPTYYADSVKGRFTISRDNAKNTVYLQMKSLKPEDTAVYYCASARSYLTYFYHYDYWGQGTQVTVSS | low polyreactivity |
| QVHLVESGGGLVQAGGSLGLSCAASGFTFTRNTMGWYRQAPGKERELVAAITRGGSTNYADSVKGRFTISRDNAKNTVYLQMNSLKPEDTAVYYCNKGRNVVLVRTADDYWGQGTQVTVSS | low polyreactivity |
| QVQLEESGGGLVQAGGTLRLSCAASGLNFSYNAMGWYRQAPGKERELVAAISYSGGSTYYPDSVKGRFTISRDNAKNTVYLQMNSLKPEDTAVYYCASDAWWLYYGYYYWGQGTQVTLSS | high polyreactivity |
| QVKLVESGGGLVQAGGSLRLSCAASGRTFGYNAMGWYRQAPGKERELVASINWSGGRTYYADSVKGRFTISRDNAKNTVYLQMYSLKPEDTAVYYCAKGFTRVQQQYQYLFGYWGQGTQVTVSS | low polyreactivity |
| KVQLVESGGGLVQAGGSLRLSCAASGSTFSTNAMGRYRQAPGKERELVAAISRTGGSTYYADSVKGRFTISRDNAKNNVYLPMNILKPEDTAVYYSARYSYRGTNVRFDYWGQGTQVTLSS | high polyreactivity |
| QVQLVESGGGLVQAGGSLRLSCAASGFTFAYYAMGWYRQAPGKERELVAAISERGGSTYYADSVKGRFTISRDNAKNTVYLQMNSLKPEDTAVYYCARTFWDYPWYQSSYYSWGQGTQVTVSS | low polyreactivity |
| QVQLVESGGGLVQAGGSLRLSCAASGRIFPDYAMGWYRQAPGKERELVAAISSSGGRTYYADSVKGRFTISRDNAKNTVYLQMNSLKPEDTAVYYCAARGSYTSIFDYWGQGTQVTVSS | high polyreactivity |
| QVQLVESGGGLVQAGGSLRLSCAASGIIFWFYAMGWNRQAPGKERELVAAISGDGDSTYYADSVKGRFTISRDNAKNTVYLQMNSLKPEDTAVYYCAAEWDPVFATDEDDYWGQGTQVTVSS | low polyreactivity |
| QVQLVESGGGLVQAGGSLRLSCAASGFIFTKYTMGWYRQAAGKVRELVAAIDSGGNTYADSVKGRFTISRDNAKNTVYLHMNSLKPEDTAVYYCAVDGGEFSSYGYWGQGTQVTVSS | low polyreactivity |
| QVQLVESGGGLVQAGGSLRLSCAASGSTFRVYAMGWYRQAPGKERELVAGITQTSGRTYYADSVKGRFTISRDNAKNTVYLQMNSLKPEDTAVYYCARESYSSYFHYYYWGQGTQVTVSS | high polyreactivity |
| QVQLVESGGGLVQAGGSLRLSCAASGSTFVKNTMGWYRQAPGKERELVAAIRSSGGSTYYADSVKGRFTISRDNAKNTVYLQMNSLKPEDTAVYYCAAPRVSVHGGGYWGQGTQVTVSS | high polyreactivity |
| QVQLVESGGGLVQAGGSLRLSCAASGRIFRQYAMGLYRQAPGKERELVAAISRRGTSTYYADSVKGRFTISRDNAKNTVYLQMNSLKPEDTAVYYCAAGGVYSIYRTSRVGYDYWGQGTQVTVSS | high polyreactivity |

| Sequence | polyreactivity (PSR sort gate) |
| --- | --- |
| QVQLVESGGGLVQAGGSLSLSCAASGRTMYTNAMGWYIQAPGKERELVAVITLSTDGTYYADSVKGRFTISRDNAKNTVYLQMNSLKPEDTAVYYCAIGDPDGDREIWRLYYWGQGTKVTVSS | low polyreactivity |
| QVQLVESCGGLVQAGGSLRLSCAASGSIFQSYAMGWYRQAPGKERELVAAITERGGSTYYADSVKGRFTISRDNAKNTVYLQMNSLKPEDTAVYYCAADIYYWWGLSDLYTPTEGDYWGQGTQVTVSS | low polyreactivity |
| QVQLVESGGGLVQAGGSLRLSCAASGITFYHYAMGWYRQAPGKERELVAAISRSGGSTSYADSVMGRFTISRDNAKNTVYLQMNSLKPEDTAVYYCAARLVRESEPLGYWGQGTQVTVSS | high polyreactivity |
| QVQLVESGGGLVQAGGSLRLSSAASGRTLARNAMGWYRQAPGKERELVAGITSGGSTDYADSVKGRFTISRDNAKNTVYLQMNSLKPEDTAVYYCNRDAGPGGDYWGQGTQGTVSS | low polyreactivity |
| QVQLVESGGGLVQAGGSLRLSCAASGFTFTYYTMGWYRQAPGKERELVAAISWSGSSTYYADSVKGRFTISRDNAKNTVYLQMNSLKPEDTAVYYCAAKYRGKYYYWGQGTQVTVSS | high polyreactivity |
| QVQLVESGGGLVQAGGSLRLICAASGRTFRKYAMGWYRQAPGKERELVAAINRGGTTKYADSVKGRFTISRDNAKNTVYLQMNSLKPEDTAVYYCNAAYGGVFFYAYDYWGQGTQVTVSS | low polyreactivity |
| QVQLVESGGGLVQAGGTLRLSCAASGSIFRYYTMGWYRQAPGKERELVAAITWDGDSTYYADSVKGRFTISLDNAKNTVYLQMNSLKPEDTAVYYCNADDYGPGFDYWGQGTQVTVSS | low polyreactivity |
| QVQLVESGGGLVKAGGSLRLSCAASGYTFRSYAMGWYRQAPGKEREKVARITFRGTSTYADSVKGRFTISRDNAKNTVYLQMNSLKPEESAVYYCNTSRAPWGNGYKRYDYWGQGTQVTVSS | low polyreactivity |
| QVQLEESGGGLVQAGGSLRLSCAASGSTFSRYAMGWYRPAPGKEREFVAAISRRAGGTYYADSVKGRFTISRDNAKNTVYLQMNSLKPEDTAVYYCATVLPRDYIGRATYDYWGQGTQVTVSS | high polyreactivity |
| QVQLVESGGGLVQAGGSLRLSCAASGNTFGDNAMGWYRQAPGKERELDAAISTGGNTYYADSVKGRFTISRDNAKNSVYLQMNSLKPEDTAVYYCNAKWIPDTLFGIHETEGDYWGQGTQVTVSS | low polyreactivity |
| QVQLVESGGRLVQAGGSLRLSCAASGRTIYSNTMGWYRQAPGKEREFVAAIPSIVGSTYYADSVKGRFTISRDNAKNTVYLQMNSLKPEDTAVYYCAVTDYYSYLLRYDSWGQGTQVTVSS | low polyreactivity |
| QVQLVESGGGLVQAGGSLRLSCAASGRILWYNAMGWYRQAPGKERELVAAINRGGSTNYADSVKGRFRISRDNAKNTVYLQMNSLKPEDTAVYYCAAVHYRWWYRSAYDYWGQGTQVTVSS | low polyreactivity |
| QVQLVESGGGLVQAGGSLRLSCAASGRIFIGNAMGWYRQAPGKERELVADISYSGGTTYYADSVKGRFTISRENAKNTVYVQMNSLKPVDTAVYYCNKYDPRPVWQGWVWIEYYYWGQGTQVTVSS | low polyreactivity |
| QEQLVESGGGLVQAGGSLRLSCAASGSILRYYAMRWYRQPPGKEREFVAAISWSGTSTYYADSVKGRFTISRDIAKNTVYLQLNSLKPEDTSVYYCAARTYYVPYYYCGQGTQVTVSS | high polyreactivity |
| QVHLVESGGGLVQAGGSLRLSCAASGFTFNWYAMGWYRHAPGKERELVAAINSSGGNTYYADSVKGRFTISRDNAKNTVYLQMNSLKPEDTAVYYCAALLWGYVAFDYWGQGTQVTVSS | high polyreactivity |
| QVQLVESGGGLVQAGGSLRLSCAASGSIFQGYAMGWYRQAPGKERELVAAITYSGGRTYYADSVKGRFTISRDNAKNTVYLQMNSLKPEDTAVYYCAALTRRVKKYDYWGQGTQVTVSS | high polyreactivity |
| QVQLVESGGGLVQAGGSLRLSCAASGITFARYAMGLYIQAPGKERELVAAISKRGGRKYYADSVKGRFTISRDNAKNTVYLQMNSLKPEDTAVYYCATDYYVSTDYNLWGQGTQVTVSS | high polyreactivity |
| QVQLVESGGGLVQAGGSLRLSCAASGRTFQTNDMGWYRQAPGKERELVAAISRRGGSTYYADSVKGRFTISRDNAKNTVYLQMNSLKPEDTAVYYCAATRLSRYEYWGQGTQVTVSS | low polyreactivity |
| QVQLVESGGGLVQAGGSLRLSCAASGSTFVYYTMGLYRQAPGKERELVAAISWRGDDTYYSDSVKGRFTISRDNAKNTVYLQMNSLKPEDTAVYYCAGEPVSTYYWTFGDYWGQGYQVTVSS | low polyreactivity |
| QVQLVESGGGLVQAGGSLRLSCAASGRILYYNDMGWYRQAPGKERELVAAIDRGGSTSYADSVKGRFTISRDNAMNTVYLQMNSLKQEDTAVYYCAVARGGRRKYEYWGQGTQVTVSS | low polyreactivity |
| QVQLLESGGGLVQAGGSLRLSCAASGSTFYYYAMGWYRQAPGKERELVAAITSGGRTYYADSQKGRFTNSRDNAKNTVYLQMNSLKPEDTAVYYSNKRWTIWGYDYWAQGTQVTVSS | high polyreactivity |
